T1: GST-TNCIII5 (human, UniProt P24821 983-1074)
T1 construct: tenascin C, fifth TNCIII domain, T983–A1074; source: E. coli BL21, purified (Ni-NTA agarose)
T1 sequence (looked up): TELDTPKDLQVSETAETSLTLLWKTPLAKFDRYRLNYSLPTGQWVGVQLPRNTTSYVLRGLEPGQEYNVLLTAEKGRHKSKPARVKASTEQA


What was measured:
neurotrophin-3 (human) = neurotrophin-3 (human) (UniProt P20783); test: ELISA; as a1 but with 4 µM heparin (40-fold excess over 100 nM TNCIII1-5) during the incubation with TNCIII1-5
[1] = molecular target: Bone morphogenetic protein (BMP)-2 (human) (UniProt P12643); test: as above
Sequence of Bone morphogenetic protein (BMP)-2 (human) (P12643 283-396): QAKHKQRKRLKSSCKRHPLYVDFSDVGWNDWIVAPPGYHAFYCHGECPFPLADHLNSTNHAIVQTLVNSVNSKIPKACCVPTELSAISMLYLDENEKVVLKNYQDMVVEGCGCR

[2] = molecular target: Bone morphogenetic protein (BMP)-2 (human) (UniProt P12643); test: ELISA; cross-competition: growth factor (50 nM) coated; 10 nM TNCIII1–5 with full length TNC (0, 0.2, 0.6, 1.9, 5.6, […], 50 nM) in PBST, 1 h RT; TNCIII1–5 detected with HRP-anti-HIS; relative to binding without TNC
FGF-2 (human) = FGF-2 (human) (UniProt P09038); test: as above
Sequence of FGF-2 (human) (P09038 143-288): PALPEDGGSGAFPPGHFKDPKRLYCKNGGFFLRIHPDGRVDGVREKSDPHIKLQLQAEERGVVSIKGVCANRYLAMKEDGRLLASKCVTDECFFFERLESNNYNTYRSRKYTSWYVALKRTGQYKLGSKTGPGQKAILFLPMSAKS

[3] = molecular target: TNCIII1–5 (first five fibronectin type III-like repeats of human tenascin C, with N-terminal transglutaminase substrate and C-terminal 6xHis tag) (UniProt P24821); test: SPR; Biacore X100; about 450 RU TNCIII1–5 amine-coupled on Sensor Chip C1, BSA on the control channel; growth factors flowed in PBS with 0.1% BSA at 30 µl/min; Langmuir fit
GST-TNCIII5 = molecular target: T1, GST-TNCIII5; test: ELISA; GST-TNCIII domains (1 µM in PBS) coated, blocked with 2% BSA; 2 nM PDGF-BB, 1 h RT; detected with anti-PDGF-BB and HRP anti-mouse; conditions: both partners purified

Row | Molecule | Kd [3] | koff [3] | kon [3] | further results
1 | TNCIII1–5 (first five fibronectin type III-like repeats of human tenascin C, with N-terminal transglutaminase substrate and C-terminal 6xHis tag) (from UniProt P24821 622-1074) (domain or fragment) | – | – | – | percent of the original binding retained with 4 µM heparin (neurotrophin-3 (human)): 57%; percent of the original binding retained with 4 µM heparin [1]: 66%
2 | full-length native human tenascin C (from UniProt P24821 23-2201) (natural protein) | – | – | – | IC50 [2]: > 50 nM; percent inhibition of TNCIII1–5 binding at 50 nM TNC [2]: 34%; IC50 (FGF-2 (human)): 5.6 nM
3 | TGF-β1 (ligand) | 20.3 nM | 0.000237 s⁻¹ | 11700 M⁻¹ s⁻¹ | –
4 | neurotrophin-3 (ligand) YAEHKSHRGEYSVCDSESLWVTDKSSAIDIRGHQVTVLGEIKTGNSPVKQYFYETRCKEARPVKNGCRGIDDKHWNSQCKTSQTYVRALTSENNKLVGWRWIRIDTSCVCALSRKIGRT | 21 nM | 0.00106 s⁻¹ | 50700 M⁻¹ s⁻¹ | –
5 | PDGF-BB (ligand, human, UniProt P01127 82-190, looked up, Two B chains by its name; source: bought: Gibco) SLGSLTIAEPAMIAECKTRTEVFEISRRLIDRTNANFLVWPPCVEVQRCSGCCNNRNVQCRPTQVQLRPVQVRKIEIVRKKPIFKKATVTLEDHLACKCETVAAARPVT | – | – | – | fold binding level against TNCIII4 (GST-TNCIII5): 4 fold

From publication PMC3630135, “Tenascin C Promiscuously Binds Growth Factors via Its Fifth Fibronectin Type III-Like Domain” (PLoS ONE, 2013)
